Measured values taken from publication PMC10715038 (Microbiology Spectrum, 2023).

B1: Rhinolophus sinicus bat ACE2-huFc (soluble bat ACE2 ectodomain, human IgG1 Fc fusion) (Fc fusion)
chain: QSTTEDEAKMFLDKFNTKAEDLSHQSSLASWDYNTNINDENVQKMDEAGAKWSAFYEEQSKLAKNYSLEQIQNVTVKLQLQILQQSGSPVLSEDKSKRLNSILNAMSTIYSTGKVCKPNKPQECLLLEPGLDNIMGTSKDYNERLWAWEGWRAEVGKQLRPLYEEYVVLKNEMARGYHYEDYGDYWRRDYETEESPGPGYSRDQLMKDVERIFTEIKPLYEHLHAYVRAKLMDTYPFHISPTGCLPAHLLGDMWGRFWTNLYPLTVPFGQKPNIDVTDEMLKQGWDADRIFKEAEKFFVSVGLPNMTEGFWNNSMLTEPGDGRKVVCHPTAWDLGKGDFRIKMCTKVTMEDFLTAHHEMGHIQYDMAYASQPYLLRNGANEGFHEAVGEVMSLSVATPKHLKTMGLLSPDFREDNETEINFLLKQALNIVGTLPFTYMLEKWRWMVFKGEIPKEEWMKKWWEMKRKIVGVVEPVPHDETYCDPASLFHVANDYSFIRYYTRTIFEFQFHEALCRIAQHDGPLHKCDISNSTDAGKKLHQMLSVGKSQAWTKTLEDIVDSRNMDVGPLLKYFEPLYTWLQEQNRKSYVGWNTDWSPYSDQSIKVRISLKSALGENAYEWNDNEMYLFRSSVAYAMREYFLKEKHQTILFGAENVWVSNLKPRISFNFHVTSPGNLSDIIPRPEVEGAIRMSRSRINDAFRLDDNSLEFLGIQPTLGPPYQPPVT
B2: Pig ACE2-huFc (soluble pig ACE2 ectodomain, human IgG1 Fc fusion) (Fc fusion)
chain: QSTTEELAKTFLEKFNLEAEDLAYQSSLASWNYNTNITDENIQKMNDARAKWSAFYEEQSRIAKTYPLDEIQTLILKRQLQALQQSGTSGLSADKSKRLNTILNTMSTIYSSGKVLDPNNPQECLVLEPGLDEIMENSKDYSRRLWAWESWRAEVGKQLRPLYEEYVVLENEMARANNYEDYGDYWRGDYEVTGTGDYDYSRNQLMEDVERTFAEIKPLYEHLHAYVRAKLMDAYPSRISPTGCLPAHLLGDMWGRFWTNLYPLTVPFGEKPSIDVTEAMVNQSWDAIRIFEEAEKFFVSIGLPNMTQGFWNNSMLTEPGDGRKVVCHPTAWDLGKGDFRIKMCTKVTMDDFLTAHHEMGHIQYDMAYAIQPYLLRNGANEGFHEAVGEIMSLSAATPHYLKALGLLPPDFYEDSETEINFLLKQALTIVGTLPFTYMLEKWRWMVFKGEIPKEQWMQKWWEMKREIVGVVEPLPHDETYCDPACLFHVAEDYSFIRYYTRTIYQFQFHEALCRTAKHEGPLYKCDISNSTEAGQKLLQMLSLGKSEPWTLALENIVGVKTMDVKPLLSYFEPLLTWLKAQNGNSSVGWNTDWTPYADQSIKVRISLKSALGKEAYEWNDNEMYLFRSSIAYAMRNYFSSAKNETIPFGAEDVWVSDLKPRISFNFFVTSPANMSDIIPRSDVEKAISMSRSRINDAFRLDDNTLEFLGIQPTLGPPDEPPVT

Columns and labels:
[1] = biological target: T1, SARS-CoV-2 WHU01 Spike RBD, monomeric (SARS-CoV-2, UniProt P0DTC2); assay: SPR; conditions: both partners purified
T1 construct: not shown: Fc (human IgG1), C-terminal, cleaved

[2] = biological target: T1, SARS-CoV-2 WHU01 Spike RBD, monomeric; assay: SPR; conditions: both partners purified; remark: listed apart in the source

Binder | Kd [1] [µM] | koff [1] [s⁻¹] | kon [1] [M⁻¹ s⁻¹] | Kd [2] [µM] | koff [2] [s⁻¹] | kon [2] [M⁻¹ s⁻¹]
B1 | 1.92 | 0.0377 | 20000 | 1.14 | 0.0343 | 30000
B2 | 1 | 0.0395 | 40000 | 1.14 | 0.1 | 87000
